Where a chain is given by its changes, count along the chain named.
B1: M2IC-G2D (bispecific antibody, human IgG1, kappa)
chain: EVKLDETGGGLVQPGRPMKLSCVASGFTFSDYWMNWVRQSPEKGLEWVAQIRNKPYNYETYYSDSVKGRFTISRDDSKSSVYLQMNNLRVEDMGIYYCTGSYYGMDYWGQGTSVTVSSASTKGPSVFPLAPSSKSTSGGTAALGCLVKDYFPEPVTVSWNSGALTSGVHTFPAVLQSSGLYSLSSVVTVPSSSLGTQTYICNVNHKPSNTKVDKKVEPKSCDKTHTGGGSAAAQVQLVESGGGVVQPGRSLRLSCAASGFTFSTYAMNWVRQAPGKGLEWVARIRSKYNNYATYYADSVKDRFTISRDDSKNTLYLQMNSLRAEDTAVYYCARHGNFGNSYVSWFAYWGQGTLVTVSSGGGGSGGGGSGGGGSQTVVTQEPSLTVSPGGTVTLTCRSSTGAVTTSNYANWVQQKPGQAPRGLIGGTNKRAPGVPARFSGSLLGGKAALTLSGVQPEDEAEYYCALWYSNLWVFGGGTKVEIKGGGGSDKTHTCPPCPAPPVAGPSVFLFPPKPKDTLMISRTPEVTCVVVDVSHEAPEVQFNWYVDGVEVHNAKTKPREEQFNSTFRVVSVLTVVHQDWLNGKEYKCKVSNKGLPAPIEKTISKTKGQPREPQVYTLPPCRDELTKNQVSLWCLVKGFYPSDIAVEWESNGQPENNYKTTPPVLDSDGSFFLYSKLTVDKSRWQQGNVFSCSVMHEALHNHYTQKSLSLSPGK
heavy: EVKLDETGGGLVQPGRPMKLSCVASGFTFSDYWMNWVRQSPEKGLEWVAQIRNKPYNYETYYSDSVKGRFTISRDDSKSSVYLQMNNLRVEDMGIYYCTGSYYGMDYWGQGTSVTVSSASTKGPSVFPLAPSSKSTSGGTAALGCLVKDYFPEPVTVSWNSGALTSGVHTFPAVLQSSGLYSLSSVVTVPSSSLGTQTYICNVNHKPSNTKVDKKVEPKSCDKTHTCPPCPAPPVAGPSVFLFPPKPKDTLMISRTPEVTCVVVDVSHEAPEVQFNWYVDGVEVHNAKTKPREEQFNSTFRVVSVLTVVHQDWLNGKEYKCKVSNKGLPAPIEKTISKTKGQPREPQVCTLPPSRDELTKNQVSLSCAVKGFYPSDIAVEWESNGQPENNYKTTPPVLDSDGSFFLVSKLTVDKSRWQQGNVFSCSVMHEALHNRFTQKSLSLSPGK
light: DVVMTQTPLSLPVSLGDQASISCRSSQSLVHSNGNTYLRWYLQKPGQSPKVLIYKVSNRFSGVPDRFSGSGSGTDFTLKISRVEAEDLGVYFCSQSTHVPWTFGGGTKLEIKRTVAAPSVFIFPPSDEQLKSGTASVVCLLNNFYPREAKVQWKVDNALQSGNSQESVTEQDSKDSTYSLSSTLTLSKADYEKHKVYACEVTHQGLSSPVTKSFNRGEC
notes: structure 2 isotype control; CH2 G2DCH2
B2: M3IC-G2 (bispecific antibody)
chain 1: EVKLDETGGGLVQPGRPMKLSCVASGFTFSDYWMNWVRQSPEKGLEWVAQIRNKPYNYETYYSDSVKGRFTISRDDSKSSVYLQMNNLRVEDMGIYYCTGSYYGMDYWGQGTSVTVSSASTKGPSVFPLAPSSKSTSGGTAALGCLVKDYFPEPVTVSWNSGALTSGVHTFPAVLQSSGLYSLSSVVTVPSSSLGTQTYICNVNHKPSNTKVDKKVEPKSCGGGGSGGGGSQVQLVESGGGVVQPGRSLRLSCAASGFTFSTYAMNWVRQAPGKGLEWVARIRSKYNNYATYYADSVKDRFTISRDDSKNTLYLQMNSLRAEDTAVYYCARHGNFGNSYVSWFAYWGQGTLVTVSSASVAAPSVFIFPPSDEQLKSGTASVVCLLNNFYPREAKVQWKVDNALQSGNSQESVTEQDSKDSTYSLSSTLTLSKADYEKHKVYACEVTHQGLSSPVTKSFNRGECDKTHTCPPCPAPPVAGPSVFLFPPKPKDTLMISRTPEVTCVVVDVSHEDPEVQFNWYVDGVEVHNAKTKPREEQFNSTFRVVSVLTVVHQDWLNGKEYKCKVSNKGLPAPIEKTISKTKGQPREPQVYTLPPCRDELTKNQVSLWCLVKGFYPSDIAVEWESNGQPENNYKTTPPVLDSDGSFFLYSKLTVDKSRWQQGNVFSCSVMHEALHNHYTQKSLSLSPGK
chain 2: QTVVTQEPSLTVSPGGTVTLTCRSSTGAVTTSNYANWVQQKPGQAPRGLIGGTNKRAPGVPARFSGSLLGGKAALTLSGVQPEDEAEYYCALWYSNLWVFGGGTKVEIKSSASTKGPSVFPLAPSSKSTSGGTAALGCLVKDYFPEPVTVSWNSGALTSGVHTFPAVLQSSGLYSLSSVVTVPSSSLGTQTYICNVNHKPSNTKVDKKVEPKSC
heavy: B1 heavy with A270D
light: B1 light
notes: structure 3 isotype control; CH2 G2CH2
B3: M2IC-GG2 (bispecific antibody, human IgG1, kappa)
chain: B1 chain with C496G, A536D
heavy: B1 heavy with C230G, A270D
light: B1 light
notes: structure 2 isotype control; CH2 GG2CH2
B4: M3IC-PG2 (bispecific antibody)
chain 1: B2 chain 1 with C472P
chain 2: B2 chain 2
heavy: B1 heavy with C230P, A270D
light: B1 light
notes: structure 3 isotype control; CH2 PG2CH2
B5: M3IC-GG2 (bispecific antibody)
chain 1: B2 chain 1 with C472G
chain 2: B2 chain 2
heavy: B1 heavy with C230G, A270D
light: B1 light
notes: structure 3 isotype control; CH2 GG2CH2
B6: M3IC-DG2D (bispecific antibody)
chain 1: B2 chain 1 with D507A, D512A
chain 2: B2 chain 2
heavy: B1 heavy with D265A
light: B1 light
notes: structure 3 isotype control; CH2 DG2DCH2
B7: M3IC-G2D (bispecific antibody)
chain 1: B2 chain 1 with D512A
chain 2: B2 chain 2
heavy: B1 heavy
light: B1 light
notes: structure 3 isotype control; CH2 G2DCH2
B8: M3IC-AG2 (bispecific antibody)
chain 1: B2 chain 1 with C472A
chain 2: B2 chain 2
heavy: B1 heavy with C230A, A270D
light: B1 light
notes: structure 3 isotype control; CH2 AG2CH2
B9: M2IC-SG2 (bispecific antibody, human IgG1, kappa)
chain: B1 chain with C496S, A536D
heavy: B1 heavy with C230S, A270D
light: B1 light
notes: structure 2 isotype control; CH2 SG2CH2
B10: M3IC-DG2 (bispecific antibody)
chain 1: B2 chain 1 with D507A
chain 2: B2 chain 2
heavy: B1 heavy with D265A, A270D
light: B1 light
notes: structure 3 isotype control; CH2 DG2CH2
B11: M2IC-PG2 (bispecific antibody, human IgG1, kappa)
chain: B1 chain with C496P, A536D
heavy: B1 heavy with C230P, A270D
light: B1 light
notes: structure 2 isotype control; CH2 PG2CH2
B12: M3IC-SG2 (bispecific antibody)
chain 1: B2 chain 1 with C472S
chain 2: B2 chain 2
heavy: B1 heavy with C230S, A270D
light: B1 light
notes: structure 3 isotype control; CH2 SG2CH2

Biological target: T1, Human CD3ε (human, UniProt P07766 23-126)
T1 construct: CD3 on T cells isolated from human whole blood
Test: flow cytometry, human T cells
Outline: (§1)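 Antigen-positive tumor cells or isolated T cells, 2×10⁵/well, 1% FBS-PBS, on ice. Ab 3000 nM top, 3-fold ×11, 2 h 4° C shaking; wash; PE anti-hIgG Fc 8 ug/ml, 1 h 4° C. FACS MFI; EC50, one site–specific binding.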

Binder | EC50
B1 | 367 nM
B2 | 701 nM
B3 | 556 nM
B4 | 696 nM
B5 | 609 nM
B6 | 638 nM
B7 | 607 nM
B8 | 674 nM
B9 | 481 nM
B10 | 710 nM
B11 | 467 nM
B12 | 677 nM

Biological target: T2, human CEA (human, UniProt P06731 35-685)
T2 sequence: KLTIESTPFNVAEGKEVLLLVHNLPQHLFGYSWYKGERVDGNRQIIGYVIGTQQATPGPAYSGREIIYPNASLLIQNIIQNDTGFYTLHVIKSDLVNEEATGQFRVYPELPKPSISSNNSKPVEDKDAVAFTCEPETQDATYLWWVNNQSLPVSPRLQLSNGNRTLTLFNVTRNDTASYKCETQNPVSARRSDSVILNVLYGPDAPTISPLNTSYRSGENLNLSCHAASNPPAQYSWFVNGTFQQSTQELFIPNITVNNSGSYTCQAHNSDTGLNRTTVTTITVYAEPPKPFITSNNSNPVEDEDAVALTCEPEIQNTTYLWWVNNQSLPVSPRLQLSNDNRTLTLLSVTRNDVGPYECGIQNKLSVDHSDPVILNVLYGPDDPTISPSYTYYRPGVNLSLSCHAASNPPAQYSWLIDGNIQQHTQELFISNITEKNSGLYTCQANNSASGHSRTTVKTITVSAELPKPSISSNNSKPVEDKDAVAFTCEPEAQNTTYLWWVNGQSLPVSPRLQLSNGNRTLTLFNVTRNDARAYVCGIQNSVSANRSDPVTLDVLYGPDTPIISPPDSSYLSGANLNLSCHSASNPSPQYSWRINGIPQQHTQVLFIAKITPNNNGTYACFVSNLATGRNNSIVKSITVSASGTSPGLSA
Test: flow cytometry, human tumor cells (table of the CEA series)
Source text: 1) Cell preparation: T cells isolated from CD3-positive human whole blood were used for a CD3 end affinity detection of multifunctional antibody molecule; positive tumor cells of corresponding antigen were used for detecting affinity of tumor antigen; for example, CD38-positive MM. 1S cells (purchased from the Cell Resource Center of Shanghai Institutes for Biological Sciences, Chinese Academy of Sciences) or RPMI 8226 cells (purchased from the Cell Resource Center of Shanghai Institutes for Biological Sciences, Chinese Academy of Sciences) were used for CD38 antigen detection, and PD-L1 positive H358 cells (purchased from the Cell Resource Center of Shanghai Institutes for Biological Sciences, Chinese Academy of Sciences) were used for PD-L1 antigen detection, and so on. The cells were resuspended with 1% FBS-PBS, adjusted to a density of 4×10⁶/ml, and 50 μl of cells were taken from each well, and then plated at 2×10⁵ per well. Cell plating was operated on ice
2) Addition of the antibody: according to the experimental design, the antibody was diluted gradually, and dilution of antibody was operated on ice. For example, the initial concentration of antibody for dilution was 3000 nM, and the antibody was diluted by 3 times with 11 concentration gradients. The diluted antibody was added to a cell well at 50 μl per well, mixed well, and shaked and incubated at 4° C. 1100 rpm/min for 2 h; after washing, the cells were resuspend in 1% FBS-PBS, and a diluted secondary antibody PE anti-human IgG FC (Biolegend, 409304) was added with a final concentration of 8 ug/ml and a volume of 50 μl/well. At the same time, a well only added with cells and secondary antibody was set as a control, the components were mixed well, and incubated under shaking at 1100 rpm/min at 4° C. for 1 h;
5) Data analysis: the data was analyzed by a flow analysis software FlowJo 7.6 thereby obtaining an average fluorescence intensity of the specific antibody concentration, plotted by a Graphpad Prism 5 with the antibody concentration (nM) as an abscissa and the average fluorescence intensity as an ordinate; the EC50 value was calculated by the method of One site—Specific binding, and the EC50 value indicated the cell affinity of the antibody to the corresponding target antigen.

Binder | binding result
B2 | no binding
B4 | no binding
B5 | no binding
B6 | no binding
B7 | no binding
B8 | no binding
B10 | no binding
B12 | no binding

Biological target: T3, Monkey CD3 (monkey)
T3 construct: whole, on cells; also called CD3 of monkey CD3 positive T cells
Test: flow cytometry, monkey T cells

Binder | EC50
B1 | 538 nM
B3 | 538 nM
B9 | 525 nM
B11 | 656 nM

Biological target: T4, Human BCMA (human, UniProt Q02223 1-54)
T4 sequence: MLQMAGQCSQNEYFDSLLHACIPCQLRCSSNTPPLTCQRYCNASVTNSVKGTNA
Test: flow cytometry, human tumor cells (table of the BCMA series)
Outline: as §1

Binder | binding result
B1 | no binding
B3 | no binding
B9 | no binding
B11 | no binding
